From patent publication CN110003338A (BEIJING MIANYI FANGZHOU MEDICINE TECH CO LTD, dated 2019)

T1: 人OX40 (expressed on cells: transfected 293T cells; HEK::OX40 100B5 cells) (human, UniProt P43489 29-277)
T1 construct: whole, on cells; also called hOX40
T1 sequence (looked up): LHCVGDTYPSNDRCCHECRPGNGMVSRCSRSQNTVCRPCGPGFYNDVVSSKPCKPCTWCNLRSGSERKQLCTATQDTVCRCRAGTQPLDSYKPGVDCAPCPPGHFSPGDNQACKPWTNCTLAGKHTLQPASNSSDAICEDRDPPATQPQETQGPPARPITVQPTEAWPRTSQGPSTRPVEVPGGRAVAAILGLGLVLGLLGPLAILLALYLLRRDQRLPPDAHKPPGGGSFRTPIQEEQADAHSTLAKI


Target: T1, 人OX40 (expressed on cells: transfected …)
Assay: Flow cytometry on 293T cells expressing human OX40, antibody 1 µg/mL final, APC anti-mouse IgG Fc

Row | binding result | Binder
1 | binds | 抗OX40单克隆抗体4F2 (antibody, V domains shown, Mouse hybridoma monoclonal antibody (Balb/c x SP2/0); Constant regions are mouse; it was detected with anti-mouse IgG Fc and mIgG1 served as isotype control) VH: DVQLQESGPGLVKPSQSLSLTCSVTGYSITSGYNWNWIRQFPGNKLEWMGYISYDGSNNYNPSLKNRISITRDTSKNQFFLKLNSVTTEDTATYYCARQGSSGHFYYAMDYWGQGTSVTVSS VL: DIVMTQAHKFMSTSVGDRVSITCKASQDVSSAVAWYQQKPGQSPKLLIYWASIRHTGVPDRFTGSGSGTDYTLTISSVQAEDLALYYCQQHYSTPWTFGGGTKLEIK
2 | binds | 抗OX40单克隆抗体6A6 (antibody, V domains shown, Mouse hybridoma monoclonal antibody) VH: EVQLQQSGPELVKPGASVKISCKASGYSFTGYYMNWVKQSPEKSLEWIGEINPSTGGTTYNQKFKAKATLTVDKSSSTAYMQLKSLTSEDSAVYYCARSGLPYYDVDYWGQGTTLTVSS VL: DIQMTQSPSSLSASLGERVSLTCRASQEISGYLSWLHQKPDGTIKRLIYAASTLDSGVPKRFSGSRSGSDYSLTISSLESEDFADYYCLQYASYPLTFGAGTNLELK
